From US20250264471

Biological target: Biotin-Crosstide (Anaspec)

B1: Akt1-S473E-T308P (protein)
chain: HHHHHHMDFRSGSPSDNSGAEEMEVSLAKPKHRVTMNEFEYLKLLGKGTFGKVILVKEKATGRYYAMKILKKEVIVAKDEVAHTLTENRVLQNSRHPFLTALKYSFQTHDRLCFVMEYANGGELFFHLSRERVFSEDRARFYGAEIVSALDYLHSEKNVVYRDLKLENLMLDKDGHIKITDFGLCKEGIKDGATMKTFCGTPEYLAPEVLEDNDYGRAVDWWGLGVVMYEMMCGRLPFYNQDHEKLFELILMEEIRFPRTLGPEAKSLLSGLLKKDPKQRLGGGSEDAKEIMQHRFFAGIVWQHVYEKKLSPPFKPQVTSETDTRYFDEEFTAQMITITPPDQDDSMECVDSERRPHFPQFEYSASSTA
B1 gave a KM (µM) (present results), peptide substrate of 9 µM.
